The text below walks through data of patent US12374423B2, “Systems and methods for MHC class II epitope prediction” (priority 2017, dated 2025).

One test deals with T1, MHCII (I-A^b) of murine bone marrow-derived dendritic cells (Mus musculus, UniProt P14434+P14483).
T1 construct: immunoprecipitation of mature peptide-MHCII complexes with monoclonal Y3P antibody; endogenous in cells; host or cells: primary BMDCs from C57/BL6 (WT) mice, exposed to live L. monocytogenes EGDe
T1 sequence (P14434 24-256): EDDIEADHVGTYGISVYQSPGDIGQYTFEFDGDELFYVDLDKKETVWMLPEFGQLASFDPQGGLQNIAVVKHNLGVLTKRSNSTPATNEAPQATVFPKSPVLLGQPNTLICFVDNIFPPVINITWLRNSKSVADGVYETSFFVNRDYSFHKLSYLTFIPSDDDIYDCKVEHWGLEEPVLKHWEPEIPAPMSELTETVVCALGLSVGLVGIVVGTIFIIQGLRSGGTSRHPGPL
T1 sequence (P14483 28-265): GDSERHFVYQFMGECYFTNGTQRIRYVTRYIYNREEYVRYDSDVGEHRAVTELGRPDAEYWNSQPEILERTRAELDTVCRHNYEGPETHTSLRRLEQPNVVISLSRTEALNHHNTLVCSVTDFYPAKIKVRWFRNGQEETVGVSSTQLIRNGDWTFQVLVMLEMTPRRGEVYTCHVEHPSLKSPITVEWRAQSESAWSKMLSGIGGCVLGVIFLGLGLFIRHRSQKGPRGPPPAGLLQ
The test can be described thus: MHCII peptidomics of BMDCs exposed to live Listeria (iTRAQ LC-MS/MS of MHCII-associated peptides). The note with it: Listeria peptide found by MHCII peptidomics that matches the BOTA prediction. Type of test: cell-based. The text has this:
To validate BOTA, Applicants tested its performance in predicting MHCII-restricted epitopes from Listeria monocytogenes, one of the most common foodborne pathogens associated with a relatively high mortality rate (Scallan et al., 2011). Despite the epidemiological impact of listeriosis, the number of experimentally validated CD4 T cell epitopes encoded within the Listeria genome is limited. Thus, Applicants first sought to identify MHCII-associated peptides in BMDCs exposed to live Listeria by peptidomics. In these experiments, primary BMDCs were exposed to live L. monocytogenes for 10 minutes or 6 hours prior to immunoprecipitation of mature peptide-MHCII complexes with monoclonal Y3P antibody (Janeway et al., 1984). Associated peptides from biological replicates of the 10-minute and 6-hour timepoints were analyzed using mass spectrometry (LC-MS/MS) (FIGS. 9A and B).
Immuno-affinity purification of MHCII complexes. Bone marrow was harvested from C57/BL6 (WT), Atg16l1^f/f×CD11c-Cre (Conway et al., 2013b), and Atg5^f/f×CD11c-Cre (Conway et al., 2013a) mice. BMDCs were differentiated from bone marrow for seven days in antibiotic-free DMEM supplemented with 20% FBS and GM-CSF (2% conditioned TOPO medium). In parallel, L. monocytogenes strain EGDe (ATCC BA-679) was cultured overnight in BHI medium, washed in PBS, and cocultured with BMDCs at an MOI of approximately 100:1 for 30 minutes. Tissue culture dishes containing cocultures were washed in PBS and cultured for an additional 10 minutes or 6 hours in DC media containing gentamicin (30 μg/ml). BMDCs were then harvested by scraping, washed in PBS, and lysed in 1% NP-40, 4 mM MgCl2, 6 μg/ml DNaseI from bovine pancreas (Sigma Aldrich), and PBS pH 7.4 at 250×10^6 cells/4 ml lysis buffer/sample. Clarified lysates were subjected to immunoprecipitation overnight at 4° C. with gentle rotation. Immunoprecipitation was performed with NHS Mag Sepharose (GE Healthcare) covalently coupled to anti-H2-IA (clone Y3P (Janeway et al., 1984)). Each sample contained 130 μl packed beads and approximately 650 μg antibody. Beads were then washed twice in PBS containing 0.1% NP-40 and three times in PBS.
MHC-peptide elution and desalting. Peptides were eluted from MHC complexes and desalted on in-house-built Empore C18 StageTips (3M, 2315) as described previously (Rappsilber et al., 2007). Sample loading, washes, and elution were performed on a tabletop centrifuge at a maximum speed of 2,000-3,500×g. Briefly, StageTips were equilibrated with 2×100 μL washes of methanol, 2×50 μL washes of 50% acetonitrile/0.1% formic acid (FA), and 2×100 μL washes of 1% FA. In a tube, the dried beads from MHC-associated peptide IPs were thawed at 4° C., reconstituted in 50 μL 3% ACN/5% FA, and loaded onto StageTips. The beads were washed with 50 μL 1% FA, and peptides were further eluted using two rounds of 5-minute incubations in 10% acetic acid. The combined wash and elution volumes were combined and loaded onto StageTips. The tubes containing the IP beads were washed again with 50 μL 1% FA, and this volume was also loaded onto StageTips. Peptides were washed twice on the StageTip with 100 μL 1% FA. Peptides were eluted using a step gradient of 20 μL 20% ACN/0.1% FA, 20 μL 40% ACN/0.1% FA, and 20 μL 60% ACN/0.1% FA. Step elutions were combined and dried to completion.
iTRAQ 4-plex labeling for quantitative proteomics.
“15028 (ERWNEKYAQAYPNVSAKID; Listeria sp) [compound 15028]”: the “Peptidomics Hit” value was “..........[…]”. In the case of “15029 (ETQHYYGLPVADSAIDRGPL; Listeria sp) [compound 15029]”, the “Peptidomics Hit” value is reported as “...APGQETQHYYGLPVADSAIDR”. Regarding “15030 (FRYVFDTAKATAASSYPGS; Listeria sp) [compound 15030]”, the “Peptidomics Hit” value is on record as “......ADFRYVFDTAKATAASSYPG”.

As for “15031 (DTTVKFTLPTVAPAFENTIKT; Listeria sp) [compound 15031]”, the “Peptidomics Hit” value is reported as “AVDDTTVKFTLPTVAPAFENT”.

On to “15032 (EKVVATPVSNVSTSSATSS; Listeria sp) [compound 15032]”, for which the “Peptidomics Hit” value is recorded as “GTKEKVVATPVSNVSTSSA”.

Consider “15033 (INQAYTGSTALSDGLNKM; Listeria sp) [compound 15033]”, for which the “Peptidomics Hit” value is “GGINQAYTGSTALSDGLN”. Take “15034 (GIAVTAFAAPTIASASTVVV; Listeria sp) [compound 15034]”: the “Peptidomics Hit” value was “IAVTAFAAPTIASA”. “15036 (TVRAKSKTYPVYINEFALED; Listeria sp) [compound 15036]”: the “Peptidomics Hit” value is “TVRAKSKTYPVYInEFALE”.

Still in this test, the particulars now being: MHCII-bound peptide abundance, BMDCs, 6 hr versus 10 min after Listeria exposure.
As to “14980 (WNEKYAQAYPNVS; Listeria sp) [compound 14980]”, the “logFC (Log2 Fold Change Listeria 6 hr versus 10 min)” value is 1.377. As to “14981 (WNEKYAQAYPNVSAKI; Listeria sp) [compound 14981]”, the “logFC (Log2 Fold Change Listeria 6 hr versus 10 min)” value came to 1.202. Take “14982 (VERWNEKYAQAYPNVS; Listeria sp) [compound 14982]”: the “logFC (Log2 Fold Change Listeria 6 hr versus 10 min)” value worked out at 0.2849. The same measure, in the same setting: under “14983 (ERWNEKYAQAYPNVS; Listeria sp) [compound 14983]” stands 0.2069. On the same count and under the same terms, with “14985 (VWTKPNKIEGAQKISALSTY; Listeria sp) [compound 14985]” the figure was -0.2625; with “14995 (EVEDLNQPLAAHVNYE; Listeria sp) [compound 14995]”, 0.1526; with “15016 (SNVNHVLDIGYGGGSNVKN; Listeria sp) [compound 15016]”, 0.227. In the case of “15017 (EVVYHNMKQDLE; Listeria sp) [compound 15017]”, the “logFC (Log2 Fold Change Listeria 6 hr versus 10 min)” value is on record as -0.1708. For the substance “15018 (DGLKAGEHFFAAGKDWPDAIYANGDEVAAGVMYH; Listeria sp) [compound 15018]”, the “logFC (Log2 Fold Change Listeria 6 hr versus 10 min)” value is -0.4271. Still for that read-out and setting: under “15019 (EILLQKPNGERLTSFITL; Listeria sp) [compound 15019]” stands -0.04842; under “15020 (GLLMAKKYKMNLTIVIVN; Listeria sp) [compound 15020]”, -0.6291. On the same count and under the same terms, with “15022 (MNRVMLPLQQMGAKMHGK; Listeria sp) [compound 15022]” the figure was 0.1447; with “15023 (VMASDYTRGLSIRAIELVFENL; Listeria sp) [compound 15023]”, 0.2507; with “15024 (YMEKHSVSRLVGAPP; Listeria sp) [compound 15024]”, -0.4422. On the same count and under the same terms, with “15025 (KTASGIVLPDSAKEKPQSGKIVAVGSGRVLD; Listeria sp) [compound 15025]” the figure was -0.4963; with “15026 (ESVYLSAQKENPRLFAKIETF; Listeria sp) [compound 15026]”, 0.5951. As to “15027 (RDNYLFQLYEATGTPIHPMSPF; Listeria sp) [compound 15027]”, the “logFC (Log2 Fold Change Listeria 6 hr versus 10 min)” value was -0.05049.
